This data set addresses ZFTA ZF1 (UniProt C9JLR9 81-172). Briefly: fluorescence polarization; FP: 25 mM citrate pH 5.6, 150 mM NaCl, 0.5 mM TCEP, 100 nM DNA, 15 nM-7.5 uM protein, 20 min, room temperature; NMR: same buffer with 5% D2O, 25 C. As to conditions: protein: recombinant; tags: none (His6-MBP removed by TEV); label: 5'-Cy5 on top strand; blunt. (In general: Fluorescence polarisation rises when a labelled molecule tumbles more slowly, as on binding a larger partner.)

Sequence of ZFTA ZF1 (C9JLR9 81-172): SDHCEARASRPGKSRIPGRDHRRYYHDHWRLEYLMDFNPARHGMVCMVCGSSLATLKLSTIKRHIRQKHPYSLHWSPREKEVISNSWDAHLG

B1: Cy5 PLAGL motif DNA (dsDNA)
DNA 1: GATCCATGGCCCCATGGATG
DNA 2: CATCCATGGGGCCATGGATC
Take B1: the binding result is recorded as “binds”.

The values are drawn from publication PMC12431856, “Synthetic ZFTA fusions pinpoint disordered protein domain acquisition as a mechanism of brain tumorigenesis”.
